Assay results from patent US20220242919A1 (LIMMATECH BIOLOGICS, published 2022).

Target: T1, recombinant human VEGF-R1 (human, UniProt P17948 27-756, limits assumed)
T1 construct: Bought (Acro Biosystems), used as positive control analyte in SPR; also called rhVEGF-R1; VEGF receptor
Test: SPR, Biacore T200, 25 C, VEGF165 immobilized, multi cycle kinetics
Experimental: Surface plasmon resonance spectroscopy. The kinetic parameters of the VEGF-binders were measured using a Biacore T200 instrument at 25° C. The bait ligand (recombinant human VEGF₁₆₅, Acro Biosystems) was covalently immobilized on a sensor chip Cl surface at three different densities. The prey analyte (different DARPins, or as a positive control, recombinant human VEGF-R1 (Acro Biosystems)) was analysed using multi cycle kinetics in 10 mM HEPES pH 7.4, 150 mM NaCl, 3 mM EDTA, 0.05% Tween 20 at a flow rate of 50 μl/min.
For determination of the kinetic parameters, the concentration of the probe was measured using a BCA assay (Pierce) and the molecular weight was determined via the SPR signal measured at saturating conditions (Rₘₐₓ). See Table 4 for the MW determined via SPR. Each probe was measured twice on sensor surfaces with three different densities of covalently immobilized recombinant human VEGF₁₆₅. The KD of rhVEGF-R1 is in the double-digit nanomolar range. The unmodified DARPin has a single-digit picomolar affinity to human VEGF₁₆₅, as reported by Stahl et al. (Angiogenesis 16, 101-111 (2013)).

T1 sequence (P17948 27-756 limits assumed): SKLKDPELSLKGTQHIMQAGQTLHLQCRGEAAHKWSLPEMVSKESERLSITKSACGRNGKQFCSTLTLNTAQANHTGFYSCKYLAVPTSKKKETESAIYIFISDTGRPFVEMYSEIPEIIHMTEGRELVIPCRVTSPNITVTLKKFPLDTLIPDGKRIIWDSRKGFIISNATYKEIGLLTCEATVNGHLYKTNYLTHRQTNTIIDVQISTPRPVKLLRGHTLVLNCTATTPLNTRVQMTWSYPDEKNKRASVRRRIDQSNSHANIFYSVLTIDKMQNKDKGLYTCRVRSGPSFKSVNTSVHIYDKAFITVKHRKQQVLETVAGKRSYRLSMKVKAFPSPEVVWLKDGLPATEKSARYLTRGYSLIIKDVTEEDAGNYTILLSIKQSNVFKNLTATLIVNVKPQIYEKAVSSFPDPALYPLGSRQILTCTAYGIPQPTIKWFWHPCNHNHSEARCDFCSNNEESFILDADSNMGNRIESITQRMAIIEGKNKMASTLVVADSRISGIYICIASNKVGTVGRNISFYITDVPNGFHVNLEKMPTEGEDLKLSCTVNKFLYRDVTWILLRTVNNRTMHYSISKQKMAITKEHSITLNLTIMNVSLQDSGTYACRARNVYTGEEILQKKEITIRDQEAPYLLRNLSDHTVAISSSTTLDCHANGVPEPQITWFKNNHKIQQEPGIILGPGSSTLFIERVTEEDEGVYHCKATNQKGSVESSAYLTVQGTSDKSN

Kd: 0.069 nM | koff: 8.1e-05 s⁻¹ | kon: 1.1e+06 M⁻¹ s⁻¹
B1: recombinant human VEGF165 (ligand, UniProt P15692-4 27-191, looked up)
chain: APMAEGGGQNHHEVVKFMDVYQRSYCHPIETLVDIFQEYPDEIEYIFKPSCVPLMRCGGCCNDEGLECVPTEESNITMQIMRIKPHQGQHIGEMSFLQHNKCECRPKKDRARQENPCGPCSERRKHLFVQDPQTCKCSCKNTDSRCKARQLELNERTCRCDKPRR
notes: Bought (Acro Biosystems); covalently immobilized on a Biacore sensor chip C1 surface at three densities; also called VEGF-A
